From publication PMC8782398
Where “and” joins values, the source holds several entries; their conditions need not be identical. Identical values can stand only once.

T1: human delta opioid peptide (DOP) receptor in CHO cells (human), P41143
T1 chain: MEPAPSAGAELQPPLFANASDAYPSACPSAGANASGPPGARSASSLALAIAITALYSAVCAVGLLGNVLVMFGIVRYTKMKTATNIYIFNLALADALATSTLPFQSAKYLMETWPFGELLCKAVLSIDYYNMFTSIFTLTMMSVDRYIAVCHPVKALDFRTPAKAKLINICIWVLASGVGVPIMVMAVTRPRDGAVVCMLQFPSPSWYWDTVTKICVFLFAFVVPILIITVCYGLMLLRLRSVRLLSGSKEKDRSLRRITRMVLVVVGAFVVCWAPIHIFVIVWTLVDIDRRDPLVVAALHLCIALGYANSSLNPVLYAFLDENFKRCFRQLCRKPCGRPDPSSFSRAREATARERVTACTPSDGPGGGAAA

B1: Dermorphin-Nociceptin/Orphanin FQ (DeNO) (peptide)
chain 1: YAFGYPS
chain 2: FGGFTGARKSARKLANQC
modifications: not checked
B2: Dermorphin-UFP101 (De101) (peptide)
chain 1: YAFGYPS
chain 2: FGGFTGARKSARKRKNQC
modifications: not checked

What was measured:
[1] = molecular target: human MOP receptor in HEK293 cells (human), P35372
Chain of human MOP receptor in HEK293 cells (human), P35372 (P35372 whole entry): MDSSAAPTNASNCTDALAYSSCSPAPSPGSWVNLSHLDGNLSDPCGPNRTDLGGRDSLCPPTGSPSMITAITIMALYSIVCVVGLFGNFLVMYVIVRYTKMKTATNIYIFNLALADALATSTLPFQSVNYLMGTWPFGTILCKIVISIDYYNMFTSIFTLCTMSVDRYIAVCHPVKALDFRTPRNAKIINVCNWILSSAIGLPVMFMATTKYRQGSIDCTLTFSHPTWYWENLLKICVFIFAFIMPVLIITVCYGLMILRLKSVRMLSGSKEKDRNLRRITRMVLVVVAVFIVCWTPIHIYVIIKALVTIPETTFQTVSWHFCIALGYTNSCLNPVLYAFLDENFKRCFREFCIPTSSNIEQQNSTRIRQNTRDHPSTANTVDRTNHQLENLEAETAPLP

[2] = molecular target: human MOP receptor in HEK293 cells (human), P35372; assay: radioligand binding
[3] = molecular target: T2, human mu opioid peptide (MOP) receptor in CHO cells (human), P35372
T2 sequence (P35372 whole entry): as above

[4] = molecular target: T2, human mu opioid peptide (MOP) receptor …; assay: radioligand binding
[5] = molecular target: T1, human delta opioid peptide (DOP) …; assay: radioligand binding
[6] = molecular target: human KOP receptor in CHO cells (human), P41145; assay: radioligand binding
Chain of human KOP receptor in CHO cells (human), P41145 (P41145 whole entry): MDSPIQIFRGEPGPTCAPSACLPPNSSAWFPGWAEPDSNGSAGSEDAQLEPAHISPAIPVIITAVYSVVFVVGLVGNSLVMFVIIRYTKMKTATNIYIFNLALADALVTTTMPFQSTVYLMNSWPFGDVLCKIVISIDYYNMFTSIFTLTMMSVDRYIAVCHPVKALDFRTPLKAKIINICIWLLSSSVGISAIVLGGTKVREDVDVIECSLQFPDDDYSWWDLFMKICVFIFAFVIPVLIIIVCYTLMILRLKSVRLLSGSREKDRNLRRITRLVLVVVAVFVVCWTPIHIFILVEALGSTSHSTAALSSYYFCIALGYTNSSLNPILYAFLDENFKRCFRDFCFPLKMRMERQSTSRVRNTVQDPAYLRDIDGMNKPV

Binder	GTPγ[35S] binding, HEKMOP membranes: Emax (stimulation factor) (stimulation factor) [1]	inhibition of forskolin-stimulated cAMP formation, HEKMOP cells: Emax (% inhibition) [1] [%]	other [2]	GTPγ[35S] binding, CHOMOP membranes: maximal response (stimulation factor) (stimulation factor) [3]	other [4]	other [5]	other [6]
B1	1.53	77.3	9 and 8.44				
YAFGYPS (modifications not checked) [Dermorphin]	1.43	75.6		2.63			
B2	1.44	73.3	9.28 and 8.63	2.71	9.64	7.95	7.61
